The values that follow come from patent US20110183896A1 (published 2011).

Assay [1] addresses Cry3Aa toxin of Bacillus thuringiensis tenebrionis, chymotrypsin-treated (Bacillus thuringiensis subsp. …, UniProt P0A379 159-644). The experiment in a line: ELISA. (In general: An ELISA detects its analyte on a solid surface through an enzyme-linked reagent.)
In assay [2] the target is Cry3Bb toxin of Bacillus thuringiensis, recombinant from E. coli, chymotrypsin-treated (Bacillus thuringiensis, UniProt Q06117 160-652). The experiment in a line: ELISA saturation binding.
Cry3Bb toxin of Bacillus thuringiensis, recombinant from E. coli, chymotrypsin-treated, sequence (Q06117 160-652): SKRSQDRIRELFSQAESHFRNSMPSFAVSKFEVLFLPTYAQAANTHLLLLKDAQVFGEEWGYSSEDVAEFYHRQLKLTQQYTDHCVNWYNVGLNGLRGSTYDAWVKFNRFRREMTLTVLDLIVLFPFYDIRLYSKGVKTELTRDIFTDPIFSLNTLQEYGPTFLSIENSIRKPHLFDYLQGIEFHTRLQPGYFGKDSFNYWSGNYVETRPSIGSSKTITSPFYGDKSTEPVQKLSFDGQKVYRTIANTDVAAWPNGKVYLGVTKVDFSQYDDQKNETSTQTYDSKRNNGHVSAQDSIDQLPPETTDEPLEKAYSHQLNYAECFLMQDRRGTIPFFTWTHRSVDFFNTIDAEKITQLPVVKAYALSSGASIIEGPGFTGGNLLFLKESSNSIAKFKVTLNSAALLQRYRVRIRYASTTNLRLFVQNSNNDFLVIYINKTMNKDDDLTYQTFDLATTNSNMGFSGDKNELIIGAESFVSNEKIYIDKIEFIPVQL

Cry3Aa toxin of Bacillus thuringiensis tenebrionis, chymotrypsin-treated, sequence (P0A379 159-644): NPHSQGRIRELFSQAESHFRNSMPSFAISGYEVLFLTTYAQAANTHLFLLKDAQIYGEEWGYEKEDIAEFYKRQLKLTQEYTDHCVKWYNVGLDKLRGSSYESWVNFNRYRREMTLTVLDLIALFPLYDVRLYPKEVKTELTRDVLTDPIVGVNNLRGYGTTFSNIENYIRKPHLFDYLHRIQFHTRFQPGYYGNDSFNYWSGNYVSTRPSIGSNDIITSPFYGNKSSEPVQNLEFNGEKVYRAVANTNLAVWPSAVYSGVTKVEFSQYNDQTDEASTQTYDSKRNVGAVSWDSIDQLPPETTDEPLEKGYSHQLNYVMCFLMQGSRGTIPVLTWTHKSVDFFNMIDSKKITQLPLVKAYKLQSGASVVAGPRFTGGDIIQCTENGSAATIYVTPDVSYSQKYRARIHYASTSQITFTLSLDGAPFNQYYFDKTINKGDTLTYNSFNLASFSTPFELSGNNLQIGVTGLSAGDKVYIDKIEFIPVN

B1: Dv-CR8-10 peptide (cadherin repeats 8-10 of the Diabrotica virgifera virgifera cadherin-like protein), biotinylated (peptide)
chain: MAVLMTKDLQCSENLNKDGEVGEGIIGEDIDDGDNAKIDFSVLSIVDKETKNDIQESFNISKIDSDYVLNDTLKKVHLIAFEDLKGKYGTYEVTLHMHDEGDPMQTTDPDPTLTLTIEKWNYQTPSIIFPENDQTYIVLSDQQPGQPLALFNNTGTSNTLPDFSATDGETKDYSKWDVKFSYTQTNYEDDKIFVIDHIQPCVSQLQVSKHFNSDLVRSKKYKLTITASVKDGAEQEGEAGYSTSANISIVFLNNDAQPIFQNSDWSVSFVEFNTTQPAKPLEEQAEYENTKGGLPIYYHFYSENQTLSKYFEVDETSGDLSVIGNLTYDYDQDISFHIVASNDSQVRMLDPRSSLNVTVNFLPRNRRAPQWHHHHHH
modifications: biotinylated (sites not given)
On to B1, for which the Kd in assay [1] amounted to 18.8 nM; in assay [2], 1.4 nM.

Usually Kd stands for the constant that tells how readily two partners part at equilibrium.
